Six molecules from PMC8564726, “Heterodimerization of H3K9 histone methyltransferases G9a and GLP activates methyl reading and writing capabilities” (The Journal of Biological Chemistry, 2021) can be followed below.

Broadly, the Kd is a measure of binding affinity in units of concentration. Low values mean tighter binding, high ones weaker binding. As a reminder, the stoichiometry N is a count of units in the complex or per binding partner.

Assay [1] addresses unmethylated mononucleosome (H3K9me0), 147 bp 601 DNA 5'-fluorescein-labeled. The experiment in a line: fluorescence polarisation; core mononucleosomes (147 bp 601 DNA, 5' fluorescein) at 150 nM, enzyme titrated; 100 mM Tris pH 8, 100 mM KCl, 1 mM MgCl2, 20 μM ZnSO4, 10 mM BME, 0.1% NP-40. For orientation: Fluorescence polarisation rises when a labelled molecule tumbles more slowly, as on binding a larger partner.

Assay [2] concerns the target N-terminally 6xHis-tagged G9a ANK-SET. In words: pull-down; His:G9a coexpressed with MBP:G9a or MBP:GLP in E. coli; sequential cobalt and amylose resin purification; SyPRO Red stained bands quantified.
Assay [3] has as its target fluoresceinated H3(1-20) K9me2 peptide, P68431. The experiment in a line: fluorescence polarisation; fluoresceinated H3(1-20) K9me1 or K9me2 peptide at 150 nM, enzyme titrated; 100 mM Tris pH 8, 100 mM KCl, 1 mM MgCl2, 20 μM ZnSO4, 10 mM BME, 0.1% NP-40.
Assay [4] addresses G9a ANK-SET, tags removed. The experiment in a line: SEC-MALS; His and MBP tags removed; injected at 10 μM, Shodex KW804 column, 0.4 ml per minute. On the technique in general: In gel filtration, larger molecules generally elute earlier.

B1: G9a ANK-SET homodimer (complex)
chain: DAPGRADTSQPSARMRGHGEPRRPPCDPLADTIDSSGPSLTLPNGGCLSAVGLPPGPGREALEKALVIQESERRKKLRFHPRQLYLSVKQGELQKVILMLLDNLDPNFQSDQQSKRTPLHAAAQKGSVEICHVLLQAGANINAVDKQQRTPLMEAVVNNHLEVARYMVQLGGCVYSKEEDGSTCLHHAAKIGNLEMVSLLLSTGQVDVNAQDSGGWTPIIWAAEHKHIDVIRMLLTRGADVTLTDNEENICLHWASFTGSAAIAEVLLNAQCDLHAVNYHGDTPLHIAARESYHDCVLLFLSRGANPELRNKEGDTAWDLTPERSDVWFALQLNRKLRLGVGNRAVRTEKIICRDVARGYENVPIPCVNGVDGEPCPEDYKYISENCETSTMNIDRNITHLQHCTCVDDCSSSNCLCGQLSIRCWYDKDGRLLQEFNKIEPPLIFECNQACSCWRSCKNRVVQSGIKVRLQLYRTAKMGWGVRALQTIPQGTFICEYVGELISDAEADVREDDSYLFDLDNKDGEVYCIDARYYGNISRFINHLCDPNIIPVRVFMLHQDLRFPRIAFFSSRDIRTGEELGFDYGDRFWDIKSKYFTCQCGSEKCKHSAEAIALEQSRLARLDPHPELLPDLSSLPPINT
modifications: not checked
In assay [1], B1 showed a Kd of 6 to 7 µM.

B2: N-terminally Maltose-Binding Protein tagged G9a ANK-SET (domain or fragment)
chain: DAPGRADTSQPSARMRGHGEPRRPPCDPLADTIDSSGPSLTLPNGGCLSAVGLPPGPGREALEKALVIQESERRKKLRFHPRQLYLSVKQGELQKVILMLLDNLDPNFQSDQQSKRTPLHAAAQKGSVEICHVLLQAGANINAVDKQQRTPLMEAVVNNHLEVARYMVQLGGCVYSKEEDGSTCLHHAAKIGNLEMVSLLLSTGQVDVNAQDSGGWTPIIWAAEHKHIDVIRMLLTRGADVTLTDNEENICLHWASFTGSAAIAEVLLNAQCDLHAVNYHGDTPLHIAARESYHDCVLLFLSRGANPELRNKEGDTAWDLTPERSDVWFALQLNRKLRLGVGNRAVRTEKIICRDVARGYENVPIPCVNGVDGEPCPEDYKYISENCETSTMNIDRNITHLQHCTCVDDCSSSNCLCGQLSIRCWYDKDGRLLQEFNKIEPPLIFECNQACSCWRSCKNRVVQSGIKVRLQLYRTAKMGWGVRALQTIPQGTFICEYVGELISDAEADVREDDSYLFDLDNKDGEVYCIDARYYGNISRFINHLCDPNIIPVRVFMLHQDLRFPRIAFFSSRDIRTGEELGFDYGDRFWDIKSKYFTCQCGSEKCKHSAEAIALEQSRLARLDPHPELLPDLSSLPPINT
As for B2, in assay [2], the stoichiometry N (MBP protein per His:G9a) was 1.

B3: GLP ANK-SET homodimer (complex)
chain: QEKSLAAEGRADTTTGSIAGAPEDERSQSTAPQAPECFDPAGPAGLVRPTSGLSQGPGKETLESALIALDSEKPKKLRFHPKQLYFSARQGELQKVLLMLVDGIDPNFKMEHQSKRSPLHAAAEAGHVDICHMLVQAGANIDTCSEDQRTPLMEAAENNHLDAVKYLIKAGAQVDPKDAEGSTCLHLAAKKGHYDVVQYLLSNGQMDVNCQDDGGWTPMIWATEYKHVELVKLLLSKGSDINIRDNEENICLHWAAFSGCVDIAEILLAAKCDLHAVNIHGDSPLHIAARENRYDCVVLFLSRDSDVTLKNKEGETPLQCASLSSQVWSALQMSKALRDSAPDKPVAVEKTVSRDIARGYERIPIPCVNAVDSELCPTNYKYVSQNCVTSPMNIDRNITHLQYCVCVDDCSSSTCMCGQLSMRCWYDKDGRLLPEFNMAEPPLIFECNHACSCWRNCRNRVVQNGLRARLQLYRTQDMGWGVRSLQDIPLGTFVCEYVGELISDSEADVREEDSYLFDLDNKDGEVYCIDARFYGNVSRFINHHCEPNLVPVRVFMSHQDLRFPRIAFFSTRLIQAGEQLGFDYGERFWDVKGKLFSCRCGSSKCRHSSAALAQRQASAAQEPQENGLPDTSSAAAADPL
modifications: not checked
B3 yielded a fold reduction of binding (reference not clearly named) in assay [3] of 12.5 times. In assay [1], this molecule yielded a Kd of 26.3 µM.

B4: G9a-GLP ANK-SET heterodimer (complex)
chain 1: DAPGRADTSQPSARMRGHGEPRRPPCDPLADTIDSSGPSLTLPNGGCLSAVGLPPGPGREALEKALVIQESERRKKLRFHPRQLYLSVKQGELQKVILMLLDNLDPNFQSDQQSKRTPLHAAAQKGSVEICHVLLQAGANINAVDKQQRTPLMEAVVNNHLEVARYMVQLGGCVYSKEEDGSTCLHHAAKIGNLEMVSLLLSTGQVDVNAQDSGGWTPIIWAAEHKHIDVIRMLLTRGADVTLTDNEENICLHWASFTGSAAIAEVLLNAQCDLHAVNYHGDTPLHIAARESYHDCVLLFLSRGANPELRNKEGDTAWDLTPERSDVWFALQLNRKLRLGVGNRAVRTEKIICRDVARGYENVPIPCVNGVDGEPCPEDYKYISENCETSTMNIDRNITHLQHCTCVDDCSSSNCLCGQLSIRCWYDKDGRLLQEFNKIEPPLIFECNQACSCWRSCKNRVVQSGIKVRLQLYRTAKMGWGVRALQTIPQGTFICEYVGELISDAEADVREDDSYLFDLDNKDGEVYCIDARYYGNISRFINHLCDPNIIPVRVFMLHQDLRFPRIAFFSSRDIRTGEELGFDYGDRFWDIKSKYFTCQCGSEKCKHSAEAIALEQSRLARLDPHPELLPDLSSLPPINT
chain 2: QEKSLAAEGRADTTTGSIAGAPEDERSQSTAPQAPECFDPAGPAGLVRPTSGLSQGPGKETLESALIALDSEKPKKLRFHPKQLYFSARQGELQKVLLMLVDGIDPNFKMEHQSKRSPLHAAAEAGHVDICHMLVQAGANIDTCSEDQRTPLMEAAENNHLDAVKYLIKAGAQVDPKDAEGSTCLHLAAKKGHYDVVQYLLSNGQMDVNCQDDGGWTPMIWATEYKHVELVKLLLSKGSDINIRDNEENICLHWAAFSGCVDIAEILLAAKCDLHAVNIHGDSPLHIAARENRYDCVVLFLSRDSDVTLKNKEGETPLQCASLSSQVWSALQMSKALRDSAPDKPVAVEKTVSRDIARGYERIPIPCVNAVDSELCPTNYKYVSQNCVTSPMNIDRNITHLQYCVCVDDCSSSTCMCGQLSMRCWYDKDGRLLPEFNMAEPPLIFECNHACSCWRNCRNRVVQNGLRARLQLYRTQDMGWGVRSLQDIPLGTFVCEYVGELISDSEADVREEDSYLFDLDNKDGEVYCIDARFYGNVSRFINHHCEPNLVPVRVFMSHQDLRFPRIAFFSTRLIQAGEQLGFDYGERFWDVKGKLFSCRCGSSKCRHSSAALAQRQASAAQEPQENGLPDTSSAAAADPL
modifications: not checked
Regarding B4, the Kd in assay [1] fell in the range of 6 to 7 µM.

B5: N-terminally Maltose-Binding Protein tagged GLP ANK-SET (domain or fragment)
chain: QEKSLAAEGRADTTTGSIAGAPEDERSQSTAPQAPECFDPAGPAGLVRPTSGLSQGPGKETLESALIALDSEKPKKLRFHPKQLYFSARQGELQKVLLMLVDGIDPNFKMEHQSKRSPLHAAAEAGHVDICHMLVQAGANIDTCSEDQRTPLMEAAENNHLDAVKYLIKAGAQVDPKDAEGSTCLHLAAKKGHYDVVQYLLSNGQMDVNCQDDGGWTPMIWATEYKHVELVKLLLSKGSDINIRDNEENICLHWAAFSGCVDIAEILLAAKCDLHAVNIHGDSPLHIAARENRYDCVVLFLSRDSDVTLKNKEGETPLQCASLSSQVWSALQMSKALRDSAPDKPVAVEKTVSRDIARGYERIPIPCVNAVDSELCPTNYKYVSQNCVTSPMNIDRNITHLQYCVCVDDCSSSTCMCGQLSMRCWYDKDGRLLPEFNMAEPPLIFECNHACSCWRNCRNRVVQNGLRARLQLYRTQDMGWGVRSLQDIPLGTFVCEYVGELISDSEADVREEDSYLFDLDNKDGEVYCIDARFYGNVSRFINHHCEPNLVPVRVFMSHQDLRFPRIAFFSTRLIQAGEQLGFDYGERFWDVKGKLFSCRCGSSKCRHSSAALAQRQASAAQEPQENGLPDTSSAAAADPL
modifications: not checked
On to B5, for which the stoichiometry N (MBP protein per His:G9a) in assay [2] was found to be 1.

B6: GLP ANK-SET, tags removed (domain or fragment)
chain: QEKSLAAEGRADTTTGSIAGAPEDERSQSTAPQAPECFDPAGPAGLVRPTSGLSQGPGKETLESALIALDSEKPKKLRFHPKQLYFSARQGELQKVLLMLVDGIDPNFKMEHQSKRSPLHAAAEAGHVDICHMLVQAGANIDTCSEDQRTPLMEAAENNHLDAVKYLIKAGAQVDPKDAEGSTCLHLAAKKGHYDVVQYLLSNGQMDVNCQDDGGWTPMIWATEYKHVELVKLLLSKGSDINIRDNEENICLHWAAFSGCVDIAEILLAAKCDLHAVNIHGDSPLHIAARENRYDCVVLFLSRDSDVTLKNKEGETPLQCASLSSQVWSALQMSKALRDSAPDKPVAVEKTVSRDIARGYERIPIPCVNAVDSELCPTNYKYVSQNCVTSPMNIDRNITHLQYCVCVDDCSSSTCMCGQLSMRCWYDKDGRLLPEFNMAEPPLIFECNHACSCWRNCRNRVVQNGLRARLQLYRTQDMGWGVRSLQDIPLGTFVCEYVGELISDSEADVREEDSYLFDLDNKDGEVYCIDARFYGNVSRFINHHCEPNLVPVRVFMSHQDLRFPRIAFFSTRLIQAGEQLGFDYGERFWDVKGKLFSCRCGSSKCRHSSAALAQRQASAAQEPQENGLPDTSSAAAADPL
modifications: not checked
For B6, in assay [4], the stoichiometry N came out at 1 GLP per G9a.
